The record followed here is KR20190044006A (dated 2019).

The assay addresses 재조합 MERS-CoV S1-RBD 단백질 (MERS-CoV EMC/2012, UniProt K9N5Q8 358-606). In words: ELISA screening of hybridoma supernatants on RBD antigen.

B1: 단일 클론 항체 AT2F7 (antibody, V domains shown)
VH: EVKLVESGGGLVKPGGSLKLSCAASGFTFSSYTMSWVRQTPEKRLEWVATISSGGSYTYYPDSVKGRFTISRDNAKNTLYLQMSSLKSEDTAMYYCTRDLYDGYFYYAMDYWGQGTSVTVSS
VL: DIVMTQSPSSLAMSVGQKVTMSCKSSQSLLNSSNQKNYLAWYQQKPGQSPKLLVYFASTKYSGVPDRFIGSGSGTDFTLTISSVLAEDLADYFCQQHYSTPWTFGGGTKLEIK
B1: the binding result is “binds”.
